Molecular target: 3xFLAG-tagged rat KCNQ2 (rat) (UniProt O88943)
Assay: co-IP; KCNQ2-CaM complex immunoprecipitated in calcium (–) condition, the resin then exposed to 500 µM Ca2+; time course of CaM left on KCNQ2

UniProt O88943, sequence (O88943 whole entry): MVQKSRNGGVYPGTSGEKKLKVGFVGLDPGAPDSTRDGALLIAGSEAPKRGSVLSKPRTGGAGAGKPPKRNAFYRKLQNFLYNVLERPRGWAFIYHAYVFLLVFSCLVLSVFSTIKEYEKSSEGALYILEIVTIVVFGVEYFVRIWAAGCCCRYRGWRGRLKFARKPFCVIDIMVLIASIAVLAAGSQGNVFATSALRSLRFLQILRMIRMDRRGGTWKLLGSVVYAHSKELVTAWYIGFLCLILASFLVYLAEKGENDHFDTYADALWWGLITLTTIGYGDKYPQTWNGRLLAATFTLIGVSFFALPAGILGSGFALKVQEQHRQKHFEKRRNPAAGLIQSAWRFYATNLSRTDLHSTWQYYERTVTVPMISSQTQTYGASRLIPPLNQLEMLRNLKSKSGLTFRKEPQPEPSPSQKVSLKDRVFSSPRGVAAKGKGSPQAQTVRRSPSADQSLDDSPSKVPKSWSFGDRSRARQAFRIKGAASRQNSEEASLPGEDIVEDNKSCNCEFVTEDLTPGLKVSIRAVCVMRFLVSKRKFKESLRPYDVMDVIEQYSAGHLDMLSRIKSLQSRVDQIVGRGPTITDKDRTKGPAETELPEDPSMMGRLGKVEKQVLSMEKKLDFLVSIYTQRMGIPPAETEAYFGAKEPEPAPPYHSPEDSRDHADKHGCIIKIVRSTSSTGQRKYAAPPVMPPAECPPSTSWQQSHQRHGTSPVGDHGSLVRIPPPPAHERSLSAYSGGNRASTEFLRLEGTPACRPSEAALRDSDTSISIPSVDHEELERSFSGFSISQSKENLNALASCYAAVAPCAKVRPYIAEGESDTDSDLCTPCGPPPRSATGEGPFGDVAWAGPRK

A time constant of calcium-induced dissociation of 20.7 s was found for “V5-epitope tagged calmodulin (from UniProt P0DP23 1-149) (natural protein)” in this work.

— PMC3857245
